Measured values published in patent publication US20140289906A1, “Compositions Having Dicamba Decarboxylase Activity and Methods of Use” (priority 2013, published 2014).

Assay: 14C assay: 14CO2 capture from [14C]-carboxyl-labeled dicamba with IPTG-induced recombinant E. coli cells
Settings: for Dicamba Decarboxylase Activity: IPTG-induced recombinant E. coli cells, 14CO2 from [14C]-carboxyl-labeled dicamba; for Enzymatic Detection level: dicamba decarboxylation activity

Molecule | Dicamba Decarboxylase Activity | Enzymatic Detection level
102 (protein, listed as Lactobacillus plantarum) MATKTFKTLDDFLGTHFIYTYDNGWEYEWYAKNDHTVDYRIHGGMVAGRWVTDQKADIVMLTEGIYKISWTEPTGTDVALDFMPNEKKLHGTIFFPKWVEEHPEITVTYQNEHIDLMEQSREKYATYPKLVVPEFANITYMGDAGQNNEDVISEAPYKEMPNDIRNGKYFDQNYHRLNK | No | No
8 (protein, listed as Metarhizium anisopliae) MARGKINFEEAFELPTLADSSREQAALYIAPKDLDRYIYHIKHPLGERLQLANSHGIGYTIYSLTVPGIQGIPDQSKAEQHATTVNDWIANEIKDHRDRLGAFAALSMHDAAQAAAELERCVRQHGFHGALLNNYQHAGPDGETYLFYDQPAYDVFWQKCVELDVPVYLHPAAPAGNYYKQMYAQRKYLVGPPLSFANDVSLHLLGLVTNGVFDRFPKLKVVVGHLGEHIPFDFWRISHWLEDVERPLAAGRGDVMSKKDLLYYFKNNIWVTTSGHFSTPTVRYVADYLGPERIMFSVDTPYETIENGVGWFDGEEDALTRALGGEDGYKKVARENAKKLFKLTKYHDCDA | Low | Low
91 (protein, listed as Botryotinia fuckeliana) MASFVCNFGKAALATLLLTPSISAADYTPQETVLNSGRPTFYDASTSIPGKIALEEHVGNDLLNGLYTVPYYPNTNEPQYSDSVYIADVGEKMLDIPSRIANMDAANISISVLTFGGPGIQGVFNATYATYAAGYVNDYLYKNYKNNANYTGRFEFWCSNALQEPSKAATELERCVKELGGVGSFVGGYTNNGGINGTANDIVYLDDPSMEPFLEKVVELDVPIYLHPRMPAPSQLLSVKGYEFLGSSPWGFSSETGAHALRLMVSGTLDKYPTLKIVLGHCGEGLPFFLPRIDQRLRHFKKELFNNTLTMEEYWLRNFYVTTAGVQDAGTLVDTIKRTGEDRVMFSVDYPFEDTVEIAGWFDRLEMNTLTKTKLAYENAKALLKLTCYVDAEKRPRIFNKHHVDDIIKHTHSPCIWTLFH | Low | Low
94 (protein, listed as Bacillus thuringiensis) MANRGDSNMKSLVGVIMGSTSDWETMKYACDILDELNIPYEKKVVSAHRTPDYMFEYAETARERGLKVIIAGAGGAAHLPGMVAAKTNLPVIGVPVQSKALNGLDSLLSIVQMPGGVPVATVAIGKAGSTNAGLLAAQILGSFHDDIHDALELRREAIEKDVREGSELV | No | No
98 (protein, Xanthomonas campestris pv.) MAIIDCHGHYTTAPAAHDAFRKAQIAHHDDPQQPAPQYPHISDDALRESIEQHQLRLLRERGADMTIFSPRASTMAHHIGNEAVSQVWTQRCNDLIARVVQLYPHTFIGVCQLPQSPGVPISHSIAELERCVNELGFVGCNLNPDPSGGHWNGVPLTDRAWYPFFEKMVELDVPAMVHVSGSCNANFHATGAHYLNADTTAFMQFLEGDLFRDFPSLRFIIPHGGGAVPYHWGRFRGLADMLGKPPLATHVMRNVFFDTCVYHQPGIDLLFEVIDIDNILFGSEMVGAVRGIDPQTGHYFDDTKRYIDALTISDADKRKVFEGNARRVYPRLDAQLRARGL | No | No
99 (protein, listed as Ralstonia solanacearum) MAIIDCHGHFTTAPTALEDWRKRQIANLATPALGPSPDDLKISDDALTEAIRANQLRLMQARGSDLTIFSPRASFMAHHIGDFHTSATWAAICNALCHRVSQLFPDHFVGAAMLPQSPGVDIRTCIPELARCIVDYGFVGVNLNPDPSGGHWTSPPLSDPYWFPLYEKLVEYDVPAMIHVSTSCNACFHTTGAHYLNADTTAFMQVLTSDLFRRFPTLKFVIPHGGGAVPYHWGRFRGLAQELKTPPLQEHLLHNVFFDTCVYHQPGIDLLTRVIPVDNILFASEMIGAVRGIDPETGHPFDDTRRYIDQAHTLSAEDRHKIYEGNARRVYPRLDARLKARGR | No | No
97 (protein, listed as Sphingobium sp.) MAMMIIDCHGHYTVLPKAHDEWREQQKAAFKAGQPAPPYPEISDDEIRETIEANQLRLIKERGADMTIFSPRASAMAPHVGDQSVAVPWAQACNNLIARVVDLFPETFAGVCMLPQSPEADMTSSIAELERCVNELGFIGCNLNPDPGGGHFKHPPLTDRFWYPFYEKMVELDVPAMIHVSGSCNPAMHATGAYYLAADTIAFMQLLQGNLFADFPTLRFIIPHGGGAVPYHWGRFRGLADMLKQPSLDTLLMNNVFFDTCVYHQPGINLLADVIDNKNILFGSEMVGAVRGIDPTTGHYFDDTKRYIDALDISDQERHAIFEGNTRRVFPRLDAKLKARGL | No | No
93 (protein, listed as Mucilaginibacter paludis) MAKYGKHITINKNMRIVTLEEHISFPEMADQIPKAALGSFGRSEAMQRIAPKLADITGERLKSMDANGISMQVLSVDSSGVNLLSPQQGPAFATQYNDLIANRIAGFEKRFTAFAHLPMTAPFAAADELERAVKEHHFCGAMIRGLTGDQFLDHPQFAPIFERAQKLDVPIYLHPGLPPKGVADIYYSGLPNYSGMAEALACYGWGWHSETALHVLRLLFSGIFDQYPKLKLVIGHMGEMLPMMMARSEKAFKPGNGGANVRTLTDTFRSQVYLTTSGFFTQPPLKIALDTFGIDHVMFSVDYPFSTNEMGIEFLNEIDLPDEEVARIAHGNADKLLNLKA | Low | Low
7 (protein, listed as Legionella pneumophila) MAIVDFETHFITEACIDYLTQRQEVPKLVPELNGAYTMCFTPDVSLFHTSALMEELLSLNEQRLAIMDQAGVTIQVLSLTTINGIDSCPGDENKSTALAREVNDQLYSAIQRHPERFKGFASISPYDVKEGVKELERAISQLGFVGWLTHSNFGEDNYLDDKTYWPLLEAAEGLNIPIYLHPNVPIMREFGKYGFALGGSALGFEFDTALCLMRMILGGVFDAFPKLKIMLGHLGETMPFLMERLDHLYRIPDLKAYRPSIQRIPSEVLRQNVYITTSGRFFVPALRYVLEVMGEDRVLFASDYPMESLLDATRFIQDSDLSNQTKQKIFSINAKNLNLI | No | No
101 (protein, listed as Aquifex aeolicus) MAQKIALCITGASGVIYGIKLLQVLEELDFSVDLVISRNAKVVLKEEHSLTFEEVLKGLKNVRIHEENDFTSPLASGSRLVHYRGVYVVPCSTNTLSCIANGINKNLIHRVGEVALKERVPLVLLVREAPYNEIHLENMLKITRMGGVVVPASPAFYHKPQSIDDMINFVVGKLLDVLRIEHNLYKRWRG | No | No
96 (protein, Aspergillus nidulans) MAPLIVDVHTHVYPPAYMQMLRSRKTVPYVHDPSNNRDPRLIILSSDDDASIPLDQRGRPVDSSYWDINVKLSFMRQHGINCSVISLANPWLDFVEPAEAQMWAERINDDLEKTCATVNKAADPGNTLTLDQKETLFAFGALPLSAPSSESVVAEIKRLKTLEHLRGVIMGTSGLGKGLDDARLDPVWEALQETDMLMFLHPHYGLPEEAYGGPETTGRYGHVLPLALGFPLETTIAVTRMLLSGVFDRFPRLKILLAHSGGTLPFLAGRIESCILHERKFISGGGDVQGPQRSVWDVLKTNIYLDAVVYGKPGLEAAMTASGSDRLLFGTDHPFFPPLDSKDNSWPSVTTNYQAIHATFDTNSKTVADVLGGNAARILNLK | No | No
103 (protein, Plasmodium yoelii yoelii) MAMEIPTEEIKFLKKEDVQNIDLNGMSKKERYEIWRRIPKVELHCHLDLTFSAEFFLKWARKYNLQPNMSDDEILDHYLFTKEGKSLAEFIRKAISVSDLYRDYDFIEDLAKWAVIEKYKEGVVLMEFRYSPTFVSSSYGLDVELIHKAFIKGIKNATELLNNKIHVALICISDTGHAAASIKHSGDFAIKHKHDFVGFDHGGREIDLKDHKDVYHSVRDHGLHLTVHAGEDATLPNLNTLYTAINILNVERIGHGIRVSESDELIELVKKKDILLEVCPISNLLLNNVKSMDTHPIRKLYDAGVKVSVNSDDPGMFLSNINDNYEKLYIHLNFTLEEFMIMNNWAFEKSFVSDDVKSELKALYF | No | No
105 (protein, Deinococcus radiodurans) MAIDFHVHLDLYPDPVAVARACEERQLTVLSVTTTPAAWRGTLALAAGRPHVWTALGFHPEVVSERAADLPWFDRYLPETRFVGEVGLDGSPSLRGTWTQQFAVFQHILRRCEDHGGRILSIHSRRAESEVLNCLEANPRSGTPILHWYSGSVTELRRAISLGCWFSVGPTMVRTQKGAALIRSMPRDRVLTETDGPFLELDGQAALPWDVKSVVEGLSKIWQIPASEVERIVKENVSRLLGTVR | No | No
104 (protein, Plasmodium Vivax) MANILQEPIDFLKKEELKNIDLSQMSKKERYKIWKRIPKCELHCHLDLCFSADFFVSCIRKYNLQPNLSDEEVLDYYLFAKGGKSLGEFVEKAIKVADIFHDYEVIEDLAKHAVFNKYKEGVVLMEFRYSPTFVAFKYNLDIELIHQAIVKGIKEVVELLDHKIHVALMCIGDTGHEAANIKASADFCLKHKADFVGFDHGGHEVDLKEYKEIFDYVRESGVPLSVHAGEDVTLPNLNTLYSAIQVLKVERIGHGIRVAESQELIDMVKEKNILLEVCPISNVLLKNAKSMDTHPIRQLYDAGVKVSVNSDDPGMFLTNINDDYEELYTHLNFTLEDFMKMNEWALEKSFMDSNIKDKIKNLYF | No | No
